Measured values: patent US8658372

Target: T1, botulinum toxoid B, P10844
T1 chain: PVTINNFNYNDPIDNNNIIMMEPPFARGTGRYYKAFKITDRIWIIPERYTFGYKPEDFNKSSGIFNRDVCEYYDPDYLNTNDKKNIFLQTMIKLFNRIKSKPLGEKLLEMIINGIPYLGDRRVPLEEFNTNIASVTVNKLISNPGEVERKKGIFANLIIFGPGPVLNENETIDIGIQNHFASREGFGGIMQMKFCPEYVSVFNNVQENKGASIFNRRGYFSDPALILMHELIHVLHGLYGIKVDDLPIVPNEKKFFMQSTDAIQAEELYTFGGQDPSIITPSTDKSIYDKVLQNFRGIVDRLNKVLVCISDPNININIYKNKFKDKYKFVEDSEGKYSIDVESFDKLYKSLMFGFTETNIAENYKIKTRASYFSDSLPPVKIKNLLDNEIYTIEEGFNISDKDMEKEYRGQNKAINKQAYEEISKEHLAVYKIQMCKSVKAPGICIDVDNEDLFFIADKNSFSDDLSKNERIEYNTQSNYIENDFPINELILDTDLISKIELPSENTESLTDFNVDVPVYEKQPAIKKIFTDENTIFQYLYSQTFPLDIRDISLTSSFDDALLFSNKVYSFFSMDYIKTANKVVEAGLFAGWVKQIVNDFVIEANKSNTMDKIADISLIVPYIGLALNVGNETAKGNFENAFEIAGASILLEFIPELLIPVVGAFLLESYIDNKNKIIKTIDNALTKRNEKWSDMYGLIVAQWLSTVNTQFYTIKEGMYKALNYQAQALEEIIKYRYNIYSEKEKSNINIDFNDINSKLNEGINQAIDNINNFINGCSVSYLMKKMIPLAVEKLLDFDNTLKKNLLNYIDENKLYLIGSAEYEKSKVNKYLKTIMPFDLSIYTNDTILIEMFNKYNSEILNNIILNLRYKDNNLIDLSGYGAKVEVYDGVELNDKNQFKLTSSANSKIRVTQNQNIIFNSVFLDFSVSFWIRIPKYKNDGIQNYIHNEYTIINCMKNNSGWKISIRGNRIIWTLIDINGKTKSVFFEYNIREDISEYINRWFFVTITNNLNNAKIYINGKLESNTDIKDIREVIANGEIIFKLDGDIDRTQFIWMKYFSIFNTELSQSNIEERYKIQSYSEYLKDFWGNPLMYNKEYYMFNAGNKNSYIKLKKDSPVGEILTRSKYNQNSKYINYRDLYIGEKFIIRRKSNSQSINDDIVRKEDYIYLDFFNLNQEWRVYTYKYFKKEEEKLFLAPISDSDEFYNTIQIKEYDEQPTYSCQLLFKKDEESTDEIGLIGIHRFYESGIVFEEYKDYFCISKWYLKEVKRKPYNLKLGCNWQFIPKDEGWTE

Binder: GIGAVLKVLTTGLPALISWIKRKRQQ (modifications not checked) [Melittin]
- limit of detection: < 5 ng/mL
